Experimental data as given in article PMC8217354.

Target: T1, N-SpTad2 (Schizosaccharomyces pombe, UniProt O94642 1-202)
T1 sequence: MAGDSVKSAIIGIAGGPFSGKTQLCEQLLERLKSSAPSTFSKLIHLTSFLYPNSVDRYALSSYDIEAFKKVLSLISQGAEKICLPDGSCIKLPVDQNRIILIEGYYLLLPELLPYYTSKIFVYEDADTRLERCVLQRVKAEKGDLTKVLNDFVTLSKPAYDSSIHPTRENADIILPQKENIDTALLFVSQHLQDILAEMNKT
Assay: EMSA

B1: tRNAAla (structured_RNA)
RNA: GGGCGUGUGGCGUAGUCGGUAGCGCGCUCCCUUAGCAUGGGAGAGGUCUCCGGUUCGAUUCCGGACUCGUCCACC
B1: no binding.
